Laboratory results reported in patent US20250049896A1 (Regeneron, published 2025).

How the values were obtained:
[1] = molecular target: T1, mf TFRC ecto-mmh (REGN2054), monomeric monkey (cyno) Tfrc ectodomain with C-terminal myc-myc-hexahistidine tag (monkey (cyno), Macaca fascicularis, UniProt H9EXL1 89-760); assay: SPR (Biacore), mAb captured on anti-human Fc, 100 nM mfTfR-mmh, 25 C
T1 construct: range 89-760; also called mfTfR-mmh; mfTFR-mmh
Experimental: (§1) Biacore binding kinetics assays were conducted for the interaction of 32 anti-human TfR IgG1 monoclonal antibodies from CHO supernatants with TfR reagents at 25° C.
(§2) Equilibrium dissociation constants (KD) for the interaction of anti-TfR monoclonal antibodies with human and fascicularis monkey TfR ecto domain recombinant proteins were determined using a real-time surface plasmon resonance (SPR) based Biacore S200 biosensor. All binding studies were performed in 10 mM HEPES, 150 mM NaCl, 3 mM EDTA, and 0.05% v/v surfactant Tween-20, pH 7.4 (HBS-EP) running buffer at […]. The Biacore CM5 sensor surface was first derivatized by amine coupling with a monoclonal mouse anti-human Fc antibody (REGN2567) followed by a step to capture anti-TfR monoclonal antibodies in CHO conditioned media. […] The dissociation of TfR bound to anti-TfR monoclonal antibodies was monitored for 3 minutes in HBS-EP running buffer. At the end of each cycle, the anti-TfR monoclonal antibodies capture surface was regenerated using a 12-sec injection of 20 mM H₃PO₄. The association rate (ka) and dissociation rate (kd) were determined by fitting the real-time binding sensorgrams to a 1:1 binding model with mass transport limitation using Scrubber 2.0 c software. The dissociation equilibrium constant (KD) and dissociative half-life (t½) were calculated from the kinetic rate constants as: […]

[2] = molecular target: T2, hmm.hTfRC (REGN2431), human transferrin receptor extracellular domain with hexahistidine-myc-myc tag (human, UniProt P02786 89-760); assay: SPR (Biacore), mAb captured on anti-human Fc, 100 nM hTFR-mmh, 25 C
T2 construct: Monomeric recombinant protein, 79210 g/mol; also called hTFR-mmh; His-myc-myc-hTFRC ecto
T2 sequence (P02786 other isoform, or with tags, fused parts or gaps): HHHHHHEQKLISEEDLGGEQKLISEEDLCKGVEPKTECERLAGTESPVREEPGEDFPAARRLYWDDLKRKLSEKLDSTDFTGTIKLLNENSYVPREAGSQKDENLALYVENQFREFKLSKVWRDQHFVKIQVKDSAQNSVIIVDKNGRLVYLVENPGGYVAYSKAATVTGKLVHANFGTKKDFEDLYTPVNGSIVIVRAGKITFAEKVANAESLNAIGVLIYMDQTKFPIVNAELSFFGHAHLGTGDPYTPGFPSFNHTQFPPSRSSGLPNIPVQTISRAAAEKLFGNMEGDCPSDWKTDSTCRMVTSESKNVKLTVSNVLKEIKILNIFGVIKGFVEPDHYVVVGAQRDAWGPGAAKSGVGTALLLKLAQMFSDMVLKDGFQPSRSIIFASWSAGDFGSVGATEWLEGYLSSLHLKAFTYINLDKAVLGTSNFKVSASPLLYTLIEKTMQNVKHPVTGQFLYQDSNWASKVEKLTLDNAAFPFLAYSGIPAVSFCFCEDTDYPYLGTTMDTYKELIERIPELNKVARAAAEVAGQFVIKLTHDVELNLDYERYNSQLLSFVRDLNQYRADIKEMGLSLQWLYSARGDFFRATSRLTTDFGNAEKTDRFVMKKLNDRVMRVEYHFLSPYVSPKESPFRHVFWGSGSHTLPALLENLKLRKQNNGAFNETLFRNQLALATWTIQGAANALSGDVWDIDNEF
Experimental: as §1, §2

[3] = molecular target: T1, mf TFRC ecto-mmh (REGN2054), monomeric …; assay: SPR (Biacore), mAb from CHO supernatant captured on anti-human Fc, 100 nM mfTfR-mmh injected, 25 C
Experimental: as §1, §2

[4] = molecular target: T3, Hmm-hTFRC (REGN2431), monomeric human transferrin receptor ectodomain with N-terminal hexahistidine-myc-myc … (human, UniProt P02786 89-760); assay: blocking ELISA, supernatant; Hmm-hTFRC binding to immobilized human holo-Tf
T3 construct: also called hmm.hTfR(C89-F763); His-myc-myc-hTFRC ecto
T3 sequence (P02786 other isoform, or with tags, fused parts or gaps): as above
Summary of the method: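 Plates were coated with anti-hTf goat pAb at 2 µg/mL overnight at 4 °C, then loaded with human holo-Tf at 1 µg/mL for 2 h at room temperature. Bound receptor was detected with TMB and absorbance read at 450 nm.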

T1 sequence (chain, as listed by the source): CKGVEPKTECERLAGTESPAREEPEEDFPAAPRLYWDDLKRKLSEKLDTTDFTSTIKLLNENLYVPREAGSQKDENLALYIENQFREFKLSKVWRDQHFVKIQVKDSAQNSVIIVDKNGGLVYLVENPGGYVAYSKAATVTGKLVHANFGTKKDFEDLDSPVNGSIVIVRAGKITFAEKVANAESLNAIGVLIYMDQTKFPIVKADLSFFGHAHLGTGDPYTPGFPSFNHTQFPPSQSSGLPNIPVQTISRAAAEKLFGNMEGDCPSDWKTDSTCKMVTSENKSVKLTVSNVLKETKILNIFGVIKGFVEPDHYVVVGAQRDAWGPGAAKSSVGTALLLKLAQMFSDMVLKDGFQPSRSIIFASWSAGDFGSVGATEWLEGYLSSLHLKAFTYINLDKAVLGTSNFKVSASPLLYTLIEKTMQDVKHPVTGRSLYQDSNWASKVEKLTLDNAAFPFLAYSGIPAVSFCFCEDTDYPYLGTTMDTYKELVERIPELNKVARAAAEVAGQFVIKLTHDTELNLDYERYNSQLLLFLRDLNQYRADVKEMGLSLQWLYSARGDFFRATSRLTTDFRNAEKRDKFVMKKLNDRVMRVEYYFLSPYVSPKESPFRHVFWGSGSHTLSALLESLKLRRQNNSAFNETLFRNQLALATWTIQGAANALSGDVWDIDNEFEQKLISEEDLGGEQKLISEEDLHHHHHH

B1: 69307 (antibody, human IgG1, kappa, V domains shown)
VH: EVQLVESGGGLVQPGGSLRLSCTASGFTFSNYWMTWVRQAPGKGLEWVANIKEDGSEKEYVDSVKGRFTISRDNAKNSLYLQMNSLRGEDTAVYYCARDGEQLVDYYYYYVMDVWGQGTTVTVSS
VL: DIQMTQSPSSVSASVGDRVTITCRASQGISSWLAWYQQKPGKAPKLLIYAASSLQSGVPSRFSGSGSGTDFTLTISSLQPEDFATYYCQKADSLPYAFGQGTKLEIKR
notes: Tested as bivalent human IgG1 from CHO primary supernatant
- 100 nM Ag Bound (RU) [1]: 3 RU
- 100 nM Ag Bound (RU) [2]: 1280 RU
- Kd [2]: 0.226 nM
- koff [2]: 4.26e-05 s⁻¹
- kon [2]: 190000 M⁻¹ s⁻¹
- t½ [2]: 271 min
- binding result [3]: no binding (tested: 100 nM)

B2: 69329 (antibody, human IgG1, kappa, V domains shown)
VH: EVQLVESGGGLVQPGGSLRLSCAASGFTFSNYWMTWVRQAPGKGLEWVANIKEDGSEKDYVDSVKGRFTISRDNAKNSLYLQMNSLRGEDTAVYYCARDGEQLVDYYYYYVMDVWGQGTTVTVSS
VL: DIQMTQSPSSVSASVGDRVTITCRASQGISSWLAWYQQKPGKAPKLLIYAASSLQSGVPSRFSGSGSGTDFTLTISSLQPEDFATYYCQKANSFPYTFGQGTKLEIKR
notes: as for B1
- 100 nM Ag Bound (RU) [1]: 8 RU
- 100 nM Ag Bound (RU) [2]: 1100 RU
- Kd [2]: 0.97 nM
- koff [2]: 0.000186 s⁻¹
- kon [2]: 192000 M⁻¹ s⁻¹
- t½ [2]: 62.2 min
- binding result [3]: no binding (tested: 100 nM)

B3: 69326 (antibody, human IgG1, kappa, V domains shown)
VH: EVQLVESGGGLVQPGGSLRLSCAVSGFIFSSYEMNWVRQAPGKGLEWVSYISSSGSTIFYADSVKGRFTISRDNAKNSLYLQMNSLRAEDTAVYYCVSGVVLFDVWGQGTMVTVSS
VL: EIVMTQSPATLSVSPGERATLSCRASQSVSSNFAWYQQKPGQAPRLLIYSASSRATGIPVRFSGSGSGTEFTLTISSLQSEDFAVYYCQQYNIWPRTFGQGTKVEIKR
notes: as for B1
- 100 nM Ag Bound (RU) [1]: 9 RU
- 100 nM Ag Bound (RU) [2]: 680 RU
- Kd [2]: 2.22 nM
- koff [2]: 0.000256 s⁻¹
- kon [2]: 115000 M⁻¹ s⁻¹
- t½ [2]: 45.1 min
- binding result [3]: no binding (tested: 100 nM)

B4: 12812B (antibody, human IgG1, kappa, V domains shown)
VH: QVQLVQSGAEVKKPGSSVRVSCKASRGTFSSYAISWVRQAPGQGLEWMGGIIPIFGTANYAQKFLARVTITADESTSTAYMELSSLRSEDTAVYYCAREKGWNYFDYWGQGTLVTVSS
VL: DIQMTQSPPSVSASVGDRVTITCRASQGISSWLAWYQQKPGKAPKLLIYAASSLQSGVPSRFSGSGSGTDFTLTISSLQPEDFATYYCQQANSFPRTFGQGTKVEIKR
notes: as for B1
- 100 nM Ag Bound (RU) [1]: 1 RU
- 100 nM Ag Bound (RU) [2]: 11 RU
- Kd [2]: 3.02 nM
- koff [2]: 0.00131 s⁻¹
- kon [2]: 433000 M⁻¹ s⁻¹
- t½ [2]: 8.8 min
- binding result [3]: no binding (tested: 100 nM)

B5: 69331 scFv (VH-VK) (scFv)
chain: QVQLVESGGGVVQPGRSLRLSCIASGFTFSVYGIHWVRQAPGKGLEWMAVISHDGNIKHYADSVKGRFTISRDNSKNTLYLQINSLRTEDTAVYYCAKDTWNSLDTFDIWGQGTMVTVSSDIQLTQSPSSLSASVGDRVTITCWASQGISSYLAWYQQKPGKAPKLLIYAASTLQSGVPSRFSGSGSGTEFTLTISSLQPEDFATYYCQQLNSYPLTFGGGTKVEIK
- % Blocking [4]: 7%

B6: 69332 Fab (Fab, V domains shown)
VH: QVTLRESGPALVKPSQTLTLTCTFSGFSLNTYGMFVSWIRQPPGKALEWLAHIHWDDDKYYSTSLKTRLTISKDTSKNQVVLTMTNMDPVDTATYYCARGHNNLNYIIHWGQGTLVTVSS
VL: AIQMTQSPSSLSASVGDRVTITCRASQGIRNDLGWYQQKPGKAPKLLIYAASTLQSGVPSRFSGSGSGTDFTLTISSLQPEDFATYYCLQDYNYPFTFGPGTKVDIKR
notes: CHO supernatant
- % Blocking [4]: 18%

B7: 69332 scFv (VK-VH) (scFv)
scFv: AIQMTQSPSSLSASVGDRVTITCRASQGIRNDLGWYQQKPGKAPKLLIYAASTLQSGVPSRFSGSGSGTDFTLTISSLQPEDFATYYCLQDYNYPFTFGPGTKVDIKGGGGSGGGGSGGGGSQVTLRESGPALVKPSQTLTLTCTFSGFSLNTYGMFVSWIRQPPGKALEWLAHIHWDDDKYYSTSLKTRLTISKDTSKNQVVLTMTNMDPVDTATYYCARGHNNLNYIIHWGQGTLVTVSS
notes: CHO supernatant; Vk-3xG4S-Vh
- % Blocking [4]: 22%

B8: 69332 scFv (VH-VK) (scFv)
chain: QVTLRESGPALVKPSQTLTLTCTFSGFSLNTYGMFVSWIRQPPGKALEWLAHIHWDDDKYYSTSLKTRLTISKDTSKNQVVLTMTNMDPVDTATYYCARGHNNLNYIIHWGQGTLVTVSSAIQMTQSPSSLSASVGDRVTITCRASQGIRNDLGWYQQKPGKAPKLLIYAASTLQSGVPSRFSGSGSGTDFTLTISSLQPEDFATYYCLQDYNYPFTFGPGTKVDIK
- % Blocking [4]: 6%

B9: 69340 Fab (Fab, V domains shown)
VH: EVQLVESGGGLVQPGRSLRLSCAASGFTFDDKAMHWVRQVPGKGLEWISGISWNSGTIGYADSVKGRFIISRDNAKNSLYLQMNSLRAEDTALYYCAKDGDTSGWYWYGLDVWGQGTTVTVSS
VL: EIVLTQSPATLSLSPGERATLSCRASQSVSSYLAWYQQKPGQAPRLLIHDVSNRATGIPARFSGSGSGTDFTLTISSLEPEDFVVYYCQQRSDWPITFGQGTRLEIKR
notes: CHO supernatant
- % Blocking [4]: 3%

B10: 69340 scFv (VK-VH) (scFv)
scFv: EIVLTQSPATLSLSPGERATLSCRASQSVSSYLAWYQQKPGQAPRLLIHDVSNRATGIPARFSGSGSGTDFTLTISSLEPEDFVVYYCQQRSDWPITFGQGTRLEIKGGGGSGGGGSGGGGSEVQLVESGGGLVQPGRSLRLSCAASGFTFDDKAMHWVRQVPGKGLEWISGISWNSGTIGYADSVKGRFIISRDNAKNSLYLQMNSLRAEDTALYYCAKDGDTSGWYWYGLDVWGQGTTVTVSS
notes: CHO supernatant; Vk-3xG4S-Vh
- % Blocking [4]: 13%

B11: 69340 scFv (VH-VK) (scFv)
chain: EVQLVESGGGLVQPGRSLRLSCAASGFTFDDKAMHWVRQVPGKGLEWISGISWNSGTIGYADSVKGRFIISRDNAKNSLYLQMNSLRAEDTALYYCAKDGDTSGWYWYGLDVWGQGTTVTVSSEIVLTQSPATLSLSPGERATLSCRASQSVSSYLAWYQQKPGQAPRLLIHDVSNRATGIPARFSGSGSGTDFTLTISSLEPEDFVVYYCQQRSDWPITFGQGTRLEIK
- % Blocking [4]: 6%

B12: 69348 Fab (Fab, V domains shown)
VH: QVQLVESGGGVVQPGRSLRLSCAASGFTFTTYGMHWVRQAPGKGLEWVAVIWYDGSNKYYGDSVKGRFTISRDNSKNTLYLQMNSLRVDDTAVYYCTRTHGYTRSSDGFDYWGQGTLVTVSS
VL: DIQMTQSPSSLSASVGDRVTITCRASQSIRNVLGWFQQKPGKAPQRLIYAASSLQSGVPSRFSGSGSGTEFTLTISSLQPEDFATYYCLQHNFYPLTFGGGTKVEIKR
notes: CHO supernatant
- % Blocking [4]: 40%

B13: 69348 scFv (VK-VH) (scFv)
scFv: DIQMTQSPSSLSASVGDRVTITCRASQSIRNVLGWFQQKPGKAPQRLIYAASSLQSGVPSRFSGSGSGTEFTLTISSLQPEDFATYYCLQHNFYPLTFGGGTKVEIKGGGGSGGGGSGGGGSQVQLVESGGGVVQPGRSLRLSCAASGFTFTTYGMHWVRQAPGKGLEWVAVIWYDGSNKYYGDSVKGRFTISRDNSKNTLYLQMNSLRVDDTAVYYCTRTHGYTRSSDGFDYWGQGTLVTVSS
notes: CHO supernatant; Vk-3xG4S-Vh
- % Blocking [4]: 16%

B14: 69348 scFv (VH-VK) (scFv)
chain: QVQLVESGGGVVQPGRSLRLSCAASGFTFTTYGMHWVRQAPGKGLEWVAVIWYDGSNKYYGDSVKGRFTISRDNSKNTLYLQMNSLRVDDTAVYYCTRTHGYTRSSDGFDYWGQGTLVTVSSDIQMTQSPSSLSASVGDRVTITCRASQSIRNVLGWFQQKPGKAPQRLIYAASSLQSGVPSRFSGSGSGTEFTLTISSLQPEDFATYYCLQHNFYPLTFGGGTKVEIK
- % Blocking [4]: 0%
